Assay results reported in the domain aggregation screens of Martell et al. (2025).

Assay: soluble fraction after stress (log2 fold change); higher = more stays soluble; pooled small domains, quantitative proteomics
Conditions: stress: pH 4
Method in brief: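 Aggregation propensity is estimated from the fold change in each domain's soluble amount after acid stress. Pooled small-domain libraries were stressed at pH 4, and higher log2 values mean more stayed soluble.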

| Sequence | soluble fraction (log2) |
| --- | --- |
| HMEYREFEAMTIRAIATLPPTQGHVIMLSRFEGLDNKEIALRLNLSLQTVKNTLTQGLKELKNKMRKLP | -0.119 |
| HMVVMKGKVKWFNKNKGYGFIITDDNKEYFVHWKSIVTNSPRELKVLEQDELVTFDLMETDKGIQAINII | -1.22 |
| HMADPVTPQDLIRWSEALAGIARTGLGFTQSLYEQERFEEVLAVAADMRVAAGSSYNPDDLVHEWMKSVG | -0.34 |
| HMLTLTNREKQVLVYIAKGHQVAQIAYELKLSGHTINGYIKTIYQKLHISSRAEAALLAQQYGL | -0.138 |
| HMEDPLAAQWKQGRKLFHDDYGYGIISKAFTAGDELVIMVQFENGGEKRFLPKYQAHNLLLVEQ | -1.3 |
| HMIMGTIEKRGPFSFRIGVQVRLPDGSWEWIRDTIHVSPDLSARAARKQAEMALARLEADVYEGKRKPD | -0.0141 |
| HMERAYGVRVSLRLDDPFRTLLGADWSRTHWFASAEERDAALLEMSRKHEFSRPGDQPALVYEKVQN | -0.471 |
| HMFNDPTMEDALVNLKGITNEVLSYLSSSKIKKLEELAEMSVPELKDIVENISDDEASALIMEARKPWF | -1.32 |
| HMSPEWTPAEQDAIDKASEGEYGEALQRVLSGDYEPMDIPDALWGVQQVADKDTYSSIQKKIADIGN | 0.422 |
| HMEELVGFEEKVRSILTSPLSAKEIKEKTHIEIDTRKLSKMLSELSFIKTEKKNGKKIFRLVS | -0.0997 |
| HMNMPYGTVKWFNDAKGFGFIAPEDGSADVFVHFSAINSKGFRSLQEGQRVSYEVTTGPKGAQAAGVTPVT | -0.91 |
| HMFDVNSMIAANIVAILKKQNRKQIDLAGALQTNKQTISKMLNGSRMINAIELKRIAEFLGVKMEELTKL | 0.0597 |
| HMESYNIVEQVLTKKILSKGNTLAKLSNEFDGLVMLVIRGDEFIIPNGETLLFEKDILVINNGP | -1.2 |
| HMNSKMTYSDLIGNIEQGNVSSVELASDGKSATVTLTDNSQKQVNIPSLDSFVTYVQDHIKAGTLSVEE | 0.109 |
| HMSSEPYISLPRGAAHDAYPLSTKAVAAQLGMSEVWLANLRSKGKGPRYVRVGTRVFYSPEDVAQWRRAT | ≥ 0.43 |
| HMERTVEVVDINDVFSQFLRLYSRERAAGLLSVFKRVEHGLSWQGNPVLLERILSNVFENAIKYAA | -0.424 |
| HMEQIGSIIKDIRKKNNLTQNEFASILGVTFQAVSKWENDKSIPDITILKDISNKFNVDLNYLISG | -0.48 |
| HMAVVIPDVKGMTIEEAAPFLAEKGIRYNIIDSVFSKDVDPGAIVEIVPTPGSKVKEGRIVFVTINAK | -0.774 |
| HMSFNLSETKKLILEEIQKGVSSVTQIAATAGISKGMTYNHLRELKLMGYIADGDSGYVITDAGKIAS | -0.323 |

| Sequence | soluble fraction (log2) |
| --- | --- |
| HMVDVEMLTTVSDHIEAKLLQGILENHGIPSYSVDEESGEYMRVYMGYSIFGEKIYVRASDLLAAQGYL | -1.93 |
| HMRPAAELGLPHAPKHFIQYLTEDDRPQVLKDVDYEGGMGVSIGRLREDSIFDWKFVGLAHNTL | 0.0686 |
| HMAPSIPSGADIRAAREAAGINLRDFARIVDGPGIAIWSRYETGTPIRVKSISPEVWQKVRDFISQHG | 0.228 |
| HMTHRRLELTLDAIDERLDRALTAAVPELSRMQWQRLIREGLVTVDGERARPSYRIQGGETLVALVPEV | -0.167 |
| HMSSANIKLDPLERQATQQIINNIKRKYPNATIENLQEVANDAIATMRQPEFSNYTVDKFVSYFLSM | -0.429 |
| HMRLDPENFYIRAVTYYRNGDWQRALSQLDEAIKLGTAIEYPALQARIYLEQGMRDEFIAASEK | -1.42 |
| HMEKMLENIDLKAAVEALPEREKKVILLRYYRGMTQDAAAKVMKVSQVQISRIEKRAIEILREKL | -0.226 |
| HMDGLAEQLFNILREELESGDYKPGQKLMSESALAQKYGVSRLTVRAAIARLSALDYVETRNGEGSFVKKR | -0.0881 |
| HMAGSGDLNAKYLASIPAPMKAKILKAVANHYGVSISEFEEEVTDKDAEALYEYIPTRSMAVQVLRDMKG | 0.199 |
| HMYGLSFLIGFTVVDRTYGDIGKVTAIDDSTVNTLMAVGDRLIPAQEAFITKIDNTKKIIYTQLPEGLL | -0.512 |
| HMAEWIYGKNVVKQSIEEGMVLKLILQRKEDPLFVLAQEKQIPVEILDRHKMTSLVKSDRHQGVAAQI | -0.645 |
| HMGPGDTTIPTTIIGMSLEEARNELSAAGLLVARIIPVDSNSRTGTVLKITPDAGSIIKAGSGVELEIAS | 0.206 |
| HMIQAGDLVFIWNPKKGDNFLIKVTPGMSQGTHFGQIKHTELMEREYGEGIVTPKGEVYYLLRPTLAGYTR | -1.3 |
| HMGGLAVQLVHAMTDQIRSGRLKAGDKLPTEAAIMKDFGVSRTVVREAISRLQASGWVDTRHGIGTFVLHQ | 0.188 |
| HMEVAPEKVLEALNELPEIYKIVLNLYAVENMSHKEIAKKLGISLGSSKSRLSRGRVMLNTLLNR | -0.866 |
| HMSIMNEQIREILNQQVTKTSKIQQLLLLGLTRRQVADLVTNGNYGFVQNVYRNMLDAGIFTP | -0.487 |
| HMTGEERRMNTADLYRRRGMELFKRKIYVDAIDSLKVSLEYEDNATTRYYLDLATKRYQDLKIS | -0.0891 |
| HMKQQTRAELLDEFAKAHAERGLYFNRDYEQGEIQALQPDKAREYLQSALEARTERQQASEQDR | 0.266 |
| HMSLQEISDLISQAERADQEQLKEVLKQLHQVESGNQPMSKGFLSSALSTLNKYPALITSIGQLLFKLAT | -0.723 |
